pKd: −log10 of the molar value.
Target: Twin-Strep-tagged human exocyst Subcomplex-1 (Exoc1:Exoc2:Exoc3:Exoc4) (human) (UniProt Q9NV70)
Test: SPR

Chain of UniProt Q9NV70 (Q9NV70 whole entry, chain 1 of 4): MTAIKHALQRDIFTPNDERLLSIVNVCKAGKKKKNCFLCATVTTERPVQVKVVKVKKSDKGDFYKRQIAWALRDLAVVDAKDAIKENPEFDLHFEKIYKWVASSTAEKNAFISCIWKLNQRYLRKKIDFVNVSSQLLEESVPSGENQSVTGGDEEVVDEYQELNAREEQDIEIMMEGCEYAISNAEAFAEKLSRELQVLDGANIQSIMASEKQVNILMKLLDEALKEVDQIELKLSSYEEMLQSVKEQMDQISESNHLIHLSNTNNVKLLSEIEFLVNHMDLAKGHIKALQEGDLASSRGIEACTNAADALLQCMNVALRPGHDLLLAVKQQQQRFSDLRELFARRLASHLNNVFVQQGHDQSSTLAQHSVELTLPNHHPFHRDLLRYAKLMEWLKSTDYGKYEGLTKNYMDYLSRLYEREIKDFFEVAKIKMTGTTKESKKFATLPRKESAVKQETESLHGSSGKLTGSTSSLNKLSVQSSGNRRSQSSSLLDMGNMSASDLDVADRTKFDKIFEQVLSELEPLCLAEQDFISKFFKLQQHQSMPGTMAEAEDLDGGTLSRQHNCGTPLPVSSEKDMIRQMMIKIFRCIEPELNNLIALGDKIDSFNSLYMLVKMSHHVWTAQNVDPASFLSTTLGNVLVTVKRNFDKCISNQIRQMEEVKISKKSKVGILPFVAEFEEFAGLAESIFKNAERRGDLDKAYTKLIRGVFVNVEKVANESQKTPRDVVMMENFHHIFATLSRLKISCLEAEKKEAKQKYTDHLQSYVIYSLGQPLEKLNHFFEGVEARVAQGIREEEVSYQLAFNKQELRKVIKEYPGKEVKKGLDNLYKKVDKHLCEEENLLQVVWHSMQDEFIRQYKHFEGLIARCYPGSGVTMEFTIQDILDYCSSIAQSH
Chain of UniProt Q9NV70 (Q96KP1 whole entry, chain 2 of 4, further chain): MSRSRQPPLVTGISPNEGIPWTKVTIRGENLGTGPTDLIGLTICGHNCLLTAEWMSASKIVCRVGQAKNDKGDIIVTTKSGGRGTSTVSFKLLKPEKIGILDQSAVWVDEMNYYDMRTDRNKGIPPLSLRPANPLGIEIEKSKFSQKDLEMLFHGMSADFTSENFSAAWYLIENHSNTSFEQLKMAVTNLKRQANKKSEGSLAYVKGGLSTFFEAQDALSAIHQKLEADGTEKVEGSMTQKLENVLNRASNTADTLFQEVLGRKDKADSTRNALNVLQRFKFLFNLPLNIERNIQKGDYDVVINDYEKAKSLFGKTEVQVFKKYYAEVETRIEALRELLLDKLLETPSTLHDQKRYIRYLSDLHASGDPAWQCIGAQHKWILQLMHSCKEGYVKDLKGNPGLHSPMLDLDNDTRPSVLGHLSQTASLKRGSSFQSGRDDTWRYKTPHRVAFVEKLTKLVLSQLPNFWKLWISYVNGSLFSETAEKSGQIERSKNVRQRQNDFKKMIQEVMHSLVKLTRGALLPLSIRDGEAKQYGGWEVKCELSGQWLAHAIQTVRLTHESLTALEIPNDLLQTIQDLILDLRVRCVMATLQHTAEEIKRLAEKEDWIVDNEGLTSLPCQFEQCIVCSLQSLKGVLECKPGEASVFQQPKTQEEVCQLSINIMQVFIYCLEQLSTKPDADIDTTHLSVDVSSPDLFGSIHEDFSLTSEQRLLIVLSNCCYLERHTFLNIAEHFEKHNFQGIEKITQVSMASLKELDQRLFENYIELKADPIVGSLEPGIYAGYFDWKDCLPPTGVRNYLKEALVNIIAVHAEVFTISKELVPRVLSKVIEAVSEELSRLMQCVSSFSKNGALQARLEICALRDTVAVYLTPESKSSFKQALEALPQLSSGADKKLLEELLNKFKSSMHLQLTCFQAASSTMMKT
Chain of UniProt Q9NV70 (O60645 whole entry, chain 3 of 4, further chain): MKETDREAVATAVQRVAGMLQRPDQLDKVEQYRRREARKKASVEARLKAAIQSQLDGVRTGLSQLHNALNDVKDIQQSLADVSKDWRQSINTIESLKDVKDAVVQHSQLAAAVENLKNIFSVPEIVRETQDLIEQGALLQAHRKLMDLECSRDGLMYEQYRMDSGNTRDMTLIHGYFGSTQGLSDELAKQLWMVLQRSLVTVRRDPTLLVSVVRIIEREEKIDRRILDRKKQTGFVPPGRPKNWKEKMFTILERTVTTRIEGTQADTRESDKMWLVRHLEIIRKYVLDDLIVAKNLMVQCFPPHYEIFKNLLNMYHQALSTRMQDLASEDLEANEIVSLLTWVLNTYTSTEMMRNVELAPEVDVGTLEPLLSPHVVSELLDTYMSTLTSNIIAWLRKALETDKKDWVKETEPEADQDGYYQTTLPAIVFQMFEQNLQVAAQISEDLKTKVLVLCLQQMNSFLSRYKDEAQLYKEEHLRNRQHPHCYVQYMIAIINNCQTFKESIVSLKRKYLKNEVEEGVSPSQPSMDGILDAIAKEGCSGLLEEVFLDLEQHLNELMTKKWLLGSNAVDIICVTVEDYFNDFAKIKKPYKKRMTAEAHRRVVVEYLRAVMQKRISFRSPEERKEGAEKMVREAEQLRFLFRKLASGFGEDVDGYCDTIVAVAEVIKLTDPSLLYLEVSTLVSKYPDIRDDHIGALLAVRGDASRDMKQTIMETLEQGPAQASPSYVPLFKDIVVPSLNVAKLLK
Chain of UniProt Q9NV70 (Q96A65 whole entry, chain 4 of 4, further chain): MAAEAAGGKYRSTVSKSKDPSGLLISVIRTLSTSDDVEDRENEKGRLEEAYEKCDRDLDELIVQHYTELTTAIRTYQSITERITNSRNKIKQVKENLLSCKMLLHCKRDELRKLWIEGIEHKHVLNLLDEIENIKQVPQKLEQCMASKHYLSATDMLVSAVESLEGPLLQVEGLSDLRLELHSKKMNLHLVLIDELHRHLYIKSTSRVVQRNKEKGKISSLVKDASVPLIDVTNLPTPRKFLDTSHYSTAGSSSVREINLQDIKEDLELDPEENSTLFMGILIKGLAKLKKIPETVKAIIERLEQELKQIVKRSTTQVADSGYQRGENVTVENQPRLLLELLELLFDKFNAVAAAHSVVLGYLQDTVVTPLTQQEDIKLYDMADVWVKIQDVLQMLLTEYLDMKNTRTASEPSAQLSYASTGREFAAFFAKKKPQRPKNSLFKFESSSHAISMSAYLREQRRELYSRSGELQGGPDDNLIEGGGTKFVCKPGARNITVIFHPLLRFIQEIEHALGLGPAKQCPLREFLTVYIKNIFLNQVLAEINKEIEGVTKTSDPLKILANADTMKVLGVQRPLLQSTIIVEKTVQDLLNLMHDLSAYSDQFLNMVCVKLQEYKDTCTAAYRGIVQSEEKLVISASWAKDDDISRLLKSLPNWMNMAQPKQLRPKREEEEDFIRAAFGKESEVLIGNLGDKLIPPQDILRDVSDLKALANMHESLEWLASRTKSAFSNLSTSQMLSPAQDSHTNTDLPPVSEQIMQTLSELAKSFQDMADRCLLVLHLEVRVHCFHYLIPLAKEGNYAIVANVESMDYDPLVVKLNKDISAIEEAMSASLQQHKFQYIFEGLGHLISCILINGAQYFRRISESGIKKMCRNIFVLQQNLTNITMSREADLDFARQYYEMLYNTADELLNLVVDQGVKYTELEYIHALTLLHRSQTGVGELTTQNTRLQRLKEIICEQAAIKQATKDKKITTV

human exocyst Subcomplex-2 (Exoc5:Exoc6:Exoc7:Exoc8) (from UniProt O00471 1-708; Q8TAG9 1-804; Q9UPT5 1-735; Q8IYI6 1-725)
pKd: 7.11
